The DeepSol protein solubility set

assay: soluble on expression in E. coli; label from the status in PepcDB or PDB records

| Sequence | soluble on expression in E. coli |
| --- | --- |
| MRLNLRQLQIFCAITRFGSTTSAGNALALSQSATSAALNELEGALGTRLFDRVGKRLVLNDSGQSLLPRAMKMLENAQQIEDSFLLPDTTLNARLRIGSSSTIGNYELPSIVGALRESAPLLRVDVDIGNSALIARKVARFEIVMGLIEAPCHLPELIAEPWSVDEMVIVAGINHPLARQKQVSLGELQDAEWLLREPGSGTREEVEHLLLRHLHDLQDLREIGSSEAIKRTLAQGIGISCLSRRVVADLLASGQLKALASPLPPLNRRFFMIRHRDKFISPSLERFREACRQATDQAATLRHGLSHNASPTSSTTP | not soluble |
| MAHHHHHHMKSATMSATHALRDKWFVSFLPLLTADMVNTDYKGNWQLAAQERTQKLDWITSVEELWSTMNSLPKVHQLGMGSTLIFARNNKEPPSYEAYPNGSRIMINLLKPPTTDAGLELVLAVVMGETAAEKASDGKPVCDVLRIAARPSREHSEQIRVEVWLSDSTRSHAVAEFLAEAMRAKGLAANSYNIAEASFDAAAPGKDKKVLAASTMPSPSSPPMVKD | soluble |
| MVLRKLSTYRQKRDFEKTPEPSGEAAVASSKQRRFVIQKHDASRLHYDFRLEFDGVFKSWAVTKGPSLDPHDKRLAVEVEDHPLDYGDFEGTIPEGQYGGGTVMLWDRGTWEADDPERGFKKGDLKFTLHGEKLHGSWVLVRMRNDRDGGKRTNWLLIKHRDEYAREGEDILAEDKSVASGRAMAQILEHHHHHH | soluble |
| MSLEVIKHDGPGRLGVIRLEPPVQTPALAGVDFTISPFNSYFNPKEYHDYDFNLAPSIPLSYYTPDEVIEKALKRIETVDYSKFNTFYFPALKRDKYYPRFVELIEENDFDAIYIGNSKVMIKDYRGFVATLRILREKFPNAVLITDLEPFFYPLAVYLGVDAFDVRSLKIYSYEGLGFTPFSPVIWDRPNDPIEFAREMIKIIKIAIQEGKLRYLVENFLPTVMNVGILRIADKEHGDYLEKYTPVHDKTVVFISEHSISRPEVFRWRKRIEERFEPPKGIDLLLIFPCSAKKPYSRSRSHMMYRKVMKEALGEKVHRVHELVVTSPYGVVPREWEWLAKYDIVVTGHWSESEVRFAGELLAQTIEKYPDIPIVAHVEGGYREAVKYAMELVNRDVIFTAVGSSTISKESLDKLKKTLKEFDLRDAEKDYRRYRFYENVRKVFDYYFGLGAGEAVLPENAQIVGSKMLRLIVNNSQTGTFQEGVISVTPFGMQRIYDKLNSYWVEVDFDIRGDVFAAGVERADEGIRPNDIVGIVRDGRVVAVGRAVLSGEEMVRAKKGIAVRVRKRVKNKEGHHHHHH | soluble |
| MALNFLSYDDDFCGYCGAILELPAQAPATVSCKVCSTRWAVKERVDQVVSRVEKIYERTVADTDGIENDESADAVVDHICTKCGHSKASYSTMQTRSADEGQTVFYTCLKCKKKDIEYS | not soluble |
| MAEFASAEFDRMLAEARSMLDAMRSGRSAPSDEEEVKGVGEAADGRVTVTVNSSGLLESVELNPRLLRLPAEEIGEHIVTAVNAALQDFRTKANQAVGAASVDLNALAASMQELQDQSVRQMAQIGQAFNELLTKLDGMR | not soluble |
| MTHIAFGHYLHSKRWYTVQVLSKSEDAMSTQLDPTQLAIEFLRRDQSNLSPAQYLKRLKQLELEFADLLTLSSAELKEEIYFAWRLGVH | not soluble |
| MAHHHHHHMSINRYNYKTMNSLLKDKIPQHFDILPHTTIKCIIHPSVIFTILDAYLRRDEDQTHVIGTLMGSVIDTNLVEISDCFVDKHSLNEGGFLQIIKDHHETMYELKQKIRPRDQVVGWFCSGSELSELSCAVHGWFKEHNSISKFYPHTPLNEPIHLLVDASLESGFLNIKAYVQLPISLVKDYFVHFHEIQTELLPCNVERADVSLVKGNIHAHKDNHTNNLEHNHNNNQIDMNELSLKKLLIMLKQCKSYVQDVIDQKKKGNISVGRYLHKVLSNDTFLTLEKFDSINESVLQDNLMISYLSNLANLQFLIAEKLNSSSLQ | not soluble |
| MAKLFAYQIGQNPRIQTDLLVDPQLFEDEHGCMGAVGFGLADCVQTGMFTDIEVIKRYLHEATYVFINGDFDRLSYLEIGIALSLGKTLYVITMNPNVTKEDLGIPFDNATIEFLSPSAFTERIHETEAAEN | not soluble |
| MKFVAPEQAPEQAEVIKNTPFWPDVDLSEFRSVMRTDGTVTQPRLKQVVLTAISEVNAELYDFRNRQQMLGWRTLAEVPAEMLDGKSERIRHYHNAVFCWARAVLNERYQDYDATASGVKRGEELAEASGDLWRDARWAISRVQDVPHCTVELI | not soluble |
| MKFSTIFGATTVMTAVSAAAVSSVMTTKTITATNGNNVYTKVVTDTADPIISYSTTRTVVVSNSDATYTKVVTEGPDTTSEKSTTKTLTLTNGSGSSTNLYTKTVTQAVESSTSSSSSSSSSSSSASSSGAAPAAFQGASVGALALGLISYLL | soluble |
| MSWGTELWDQFDNLEKHTQWGIDILEKYIKFVKERTEIELSYAKQLRNLSKKYQPKKNSKEEEEYKYTSCKAFISNLNEMNDYAGQHEVISENMASQIIVDLARYVQELKQERKSNFHDGRKAQQHIETCWKQLESSKRRFERDCKEADRAQQYFEKMDADINVTKADVEKARQQAQIRHQMAEDSKADYSSILQKFNHEQHEYYHTHIPNIFQKIQEMEERRIVRMGESMKTYAEVDRQVIPIIGKCLDGIVKAAESIDQKNDSQLVIEAYKSGFEPPGDIEFEDYTQPMKRTVSDNSLSNSRGEGKPDLKFGGKSKGKLWPFIKKNKLMSLLTSPHQPPPPPPASASPSAVPNGPQSPKQQKEPLSHRFNEFMTSKPKIHCFRSLKRGLSLKLGATPEDFSNLPPEQRRKKLQQKVDELNKEIQKEMDQRDAITKMKDVYLKNPQMGDPASLDHKLAEVSQNIEKLRVETQKFEAWLAEVEGRLPARSEQARRQSGLYDSQNPPTVNNCAQDRESPDGSYTEEQSQESEMKVLATDFDDEFDDEEPLPAIGTCKALYTFEGQNEGTISVVEGETLYVIEEDKGDGWTRIRRNEDEEGYVPTSYVEVCLDKNAKDS | soluble |
| MAHHHHHHMADAADTLLLSLEVEAAAARNAELSQTIEMLQDEVLRLRRANASLLACDARHCPKVSLQPVETPSATADVSRDESSAAADAREVFVILDDLLFEMADIRSRIILDERVDLTPRAFDSEATVAAHARRCLEEARKLKEAFVVKQHSTAAQVSELRRALGEQAEANQKQTAASALQCAMLERKYDELKRRYDEAVSRQDELVLDGVIQSPSQMLPRS | soluble |
| MSLAPINPYPLLQACQRQRVSDGAIAPVLAGTESSDRLLVLIWPQLGDFDSLEYAQWLQREQDQIQQLGLTIRAVGIGDRDSGQRFCEFTGFPADQLFVDPTASLHQELELYPGLQLSIPGFSPAAKAWLNLLLMCAGIGSPGTLAEVLRGYRGDRSAPQLIAAEETVQAAPLPPIKGNFFNLAGGSGFQRPMELATLRLRNMAESLGHWRTYVPDTSYMTQRGGTFLFDRDRQLIYEHRDHGILGFSATMNRPLSFLDNLPTPSTASEGHHHHHH | soluble |
| MGSDKIHHHHHHMPTDHSFQIKPSQAAPLTSQQLYRKCDLKELSTDCQSTAELTPLDDIVGQERAQQAVEFAMGIKEKGYNIYAIGQNGLGKRTMMLRYLNRHEPSEHSLYDWCYVVNFDDTRSPKVLKLAAGSGLEFKKAIEKLMLKLVKALPLAFDNEMYYARAEKLKSQLAQKQEAALTELSEEAKQKGISLSLTLQGDYQMIALNGEEPHDEYSFTALTETERNQFESNINGLEVKLRNIIRQNTEWEEEFSDTQQEHDEQVAKDVLIHFFKPLKDKYKHQPEVRAFLTGMQADILDNLDIFLEESEEQLALAYASLEKKMPRRYQVNVLVCQGAQKFPIVVEESPSYHSLFGYVENATFRGTVFTDFSLIRSGSLHKANGGVLLMDAVKVLERPYVWDGLKRALRSRKLDLSSLEREVSLSGTISLAPEPIPLDVKIILFGDHETYQLYNTMIQILVNYLELPLILKM | not soluble |
| SPIIPEAARALYYNDGMFEGDIKLRAGRQPARVGAAILGDEYLWSGGVIPYTFAGVSGADQSAILSGMQELEEKTCIRFVPRTTESDYVEIFTSGSGCWSYVGRISGAQQVSLQANGCVYHGTILHALMHAIGFYHEHTRMDRDNYVTINYQNVDPSMTSNFDIDTYSRYVGEDYQYYSIMHYGKYSFSIQWGVLETIVPLQNGIDLTDPYDKAHMLQTDANQINNLYTNECSLR | soluble |
| MAHHHHHHMSALKDKTGRFVVLDKNASNYESLVDQEMNNVYERVMKLDPNQVEFLQAFHEILYSLKPLFMEEPKYLPIIETLSEPERAIQFRVCWLDDNGVQRKNRCFRVQYNSALGPYKGGLRFHPSVNLSIVKFLGFEQIFKNSLTGLSMGGGKGGSDFDPKGKSDNEILKFCQAFMNELYRHIGPCTDVPAGDIGVGGREIGYLYGQYKKIVNSFNGTLTGKNVKWGGSNLRVEATGYGLVYFVLEVLKSLNIPVEKQTAVVSGSGNVALYCVQKLLHLNVKVLTLSDSNGYVYEPNGFTHENLEFLIDLKEEKKGRIKEYLNHSSTAKYFPNEKPWGVPCTLAFPCATQNEINLEDAKLLQKNGCILVGEGANMPSTVDAINLFKSNNIIYCPSKAANAGGVAISGLEMSQNFQFSHWTRETVDEKLKEIMRNIFIACSENALKYTKNKYDLQAGANIAGFLKVAESYIEQGCF | soluble |
| TLIHIYDTSEPELDVQVTGYQWKWQYKYLGQDVEYFSNLATPQDQIHNRQAKDEHYLLEVDEPLVLPVGTKVRFLITSSDVIHSWWVPAFAVKRDAIPGFVNEAWTKVDEPGIYRGQCAELCGKDHGFMPIVVDVKPKAEFDQWLAKRKEEAAKVKELTSKEWTKEELVARGDKVYHTICAACHQAEGQGMPPMFPALKGSKIVTGPKEHHLEVVFNGVPGTAMAAFGKQLNEVDLAAVITYERNAWGNDDGDMVTPKDVVAYKQK | not soluble |
| MAHHHHHHMLESFEFDQERKEALNTVAELIASTIEGAESQDVHDVLSSSLHLPHNWQEIVQKRAEQRRKLSATFTLFCEETIATPSTDGNAALDISEAPATCFLPELRPKTMPPVTTSATRGFECPSCGNHWDVVDARKSLRNSNTSSAVRELSNADVGFCPVCEDI | not soluble |
| MEDGPNEFRAWLAEIGPSWIDVFPREEDPTPEYILFGGRWNSSERDEGRRIIVNVACLLFPEESTSACQREIWTSSQYELGNLETQTTLSLRSSCPDGAKLVGGGCSTEAVGSYRYVQVIQSGFAQDDPDAWLCSWANTSDDEQTQAMAMAYCLHEEPLPAECGCCPTMAETITVKREDEPLRFGPNRLEVSCDEGQTLVLGNCTLDVDDITPFRDVTMFRSGFPPTEEHPDGDRSRWGCSWYNPTGMAPRAIATAVCLPAE | not soluble |
| MAHHHHHHMLRMKLVTYFEGFFFMATANDLPAAFRGSNCLQVQVNSKSGSKRVIRLVFIRHGQSVWNSLFNSFDATWPVRAVKAMVNEAVYFFTNPFDSVIVDSPLSEKGRSEAQELARFVRSAKGQVCFDASCSLIVCSNLRRAMETALVGMQPRIVSTGERIVVDSSLQEGSRNIDAQSLSTEPGKIVPCKMGELATPQLLGTAFDPHLNGGNRTAKRNVYDRMDEFVQHLFGGVKSNPYVPASGAESGNSALKEVIVVGHSGYFRCFFKRFLPSSSRHVAKTKKLKNCAVVSFDLVRNESTGEVYIEESTVSVLYKGF | not soluble |
